{"source": "the DeepSol protein solubility set", "data": [{"test": "soluble on expression in E. coli; label from the status in PepcDB or PDB records", "values": [{"sequence": "MSLRHVRERGVLVATLQRLAEQDPLTGIANRQGFQALLNARLAENEGRGVALGHLDLDNFRHVNDALGHQSGDRLILQVVARLKHQLEAGDQLARLGSDEFALLIDTRRDANRAEWIAERIVEALAEPYWIDGESLLLGCSLGIAHARAQSGADPLMWHAHIAMRQAKGSQGCTFHVFNERINRNARSLADLESELRRALRRDELELHYQPRLNLADGRIVGLEALVRWRHAERGLLPPSEFVPLAEQSGLIVPLGYWVISRALRDMQALCERGLEPLHMAVNLSFRQFQDSQLLATLSRLILEHGVDARWLEFELTETAVMRRNEVVRQTMDALGRLGVRFSLDDFGTGFSSFVHLNSLPITLLKVDRSFVAEMEMREENRKLVHAMINLAHNLNLEVVAEGVESEEQLTLLRGFGCDQVQGFLVSRPLPIGELMAYLLQAPGRQLEGEGHHHHHH", "soluble on expression in E. coli": "soluble"}, {"sequence": "MSLRLEGVVVPLITPFLEDYSIDKEGLKWLVSYLSENGVNGIFVNSSVGEFASLTLDEMKLVTKIALDSRKSYSTLIFAGASTNFTEETIKLAKDFKDMGVDAIVVMAPYFFKVREKELLDHFSMIAEKVDLPIIIYNIPLFTGIDIPISVYKMLVSQHSNIIGTKVTLDSLIFFKKLISEIREIRKDFSILTGFDEYLLPLLYMGGNGGVMGLANAIPKLHLKVYESWKNGNLSDANKYWRNVLNLTDIYDYCNSYTASIKLLLKVLNMPIKNVVRPPLSICEEESKIRGMIKDLSSFLTNSEGHHHHHH", "soluble on expression in E. coli": "soluble"}, {"sequence": "MSLRLHFHTQEMPMPALLYKADPARAERWRVLFAEHAPDIEWRVWPDIGDPADIHYLGAWLAPDDLQDLLPNLKVLFALSAGVDQLDLSRIPKSLPVVRLLDPGISHGMCEYASFAVLSLHREMLRYRQQQVEGLWKAQPLIPANKRRVGVMGLGLQAQHILSSLKPFGFQLSGWARSAHQVEGVTCYAGEEQLSEFLGQCDILLCVLPLTAQTEGILNRQLFERLPEGAALINMGRGGHLVEADLLEALDSGQLSAAVLDVLQQEPAPADHPFWQHPKILLTPHVAAMTQPESAFPGLLDNIRRFERGEAMQGQVNRGEGHHHHHH", "soluble on expression in E. coli": "soluble"}, {"sequence": "MSLRMIGKVLELLNCKETEREINRRKFSICDDVNFILNLPIGYLKDVISPLENYLSKHMTNNFSRLTRVVPNDYEDTQLHFSKFFLNLYSSAISEIPRFNILTSLVILDEYRMMPDKALIAAADELARNGINAIFSTSTPSVFFEEEIVSRFRNRRVVSISIVNEYGQAVEGRDCVKKGEGYYQCRGSYEVIELIEDFDIRDLDYEIIKGEEVFKVKEPFTLFVNSWEKALRLYRKLREERNTEVCLLNSSDECKVTITPKIMPTRFNVVSEISSLPTIVARSGIINDKDKIYVWIDRDNYDTVTESTLNLLSNIKVCLKHPFGCNGKMGYANKTVLKPNIDERLIKRLSEISHLMDRREFEKVTEVFSDFVTVDLFTDKEKITTVPPEFVYENKKKILYYGNSCVYTYFTDGEKCSKIVYNWLEGGGVSWLKRNLARAYKNYVEEEGKKKVFLGLKARDVEEWIEGHHHHHH", "soluble on expression in E. coli": "not soluble"}, {"sequence": "MSLRNKIKSWLLNASEYDFTDIKEGIRLHLNESPFEPPQFIIDAVKMYLSKGNRYQHPDLLEKYRELAAEYSKVEPENIYPSVGADGSIRAIFYNLVEPGDTILTNYPSYSMYSVYSSVRGTKVIKVNLKEDNEWWKENTDDLLAQAEKVELVIIDDPNNPTGSPMLNGKKELIGQLAENTKGFVVIDEAYYEFGGYTVSPYIYDYPNVLVVRTLSKAFSLASYRLGYTIANEEIVKALMKSSTPFDIPLPSLIAGITALENPSYIKDVVNIVNRNREILYQGLKNLNLKVYKSITNFLLIKDNRNLQEMLMRHGIAIRKLYDNFYRITIGTEDQCKMVIDKLGEELENSNSEGHHHHHH", "soluble on expression in E. coli": "soluble"}, {"sequence": "MSLRPKMADIARMAGVDISTVSRALAGSPRVTKETRALIDQIVRDTGYVLNEAARNLRDGRANQVLVIVSDIAAPFYSDVVQGIVETLAERGINVLLGVTLRQAKREAKLGKQLLTGVVDGIITVTGSVPKPILNMQGFDRKVVAISRPVPHEGVTCVTIDNYAAAKEVMAHLYAMGHRRIVHIGGPNHSETYRDRSAAYVDFMRDHGLVELTNVRSTDSFNDDAESGFEIMKSMLNDGSRPTAVFCATDELAISAMAAARQANRNIPGDVSFFGFDDLKLAGLMHPPLSTVSVPRFEMGRRGAEELFRQIYKGEMPSTKIVLEHRLVLRDSVAKEGHHHHHH", "soluble on expression in E. coli": "not soluble"}, {"sequence": "MSLRPTEYIDLHCHLLPGLDDGPQQLAQAVEMARQAVADGIHYVLATPHHLDRRYQNTGLVVERSVAELQAELKRQQIPLTVFAGQEVHLRDDLATALPHLLGIDVGRRYLLLELPHEQVPNYVAQVIFELLQQGTTPVIAHPERNAQIMAQPERLYDLVQQGCLAQLTAGSLVGQFGRAVKSTALELVECGLVQVIASDAHLMARRGFMMRAGYQALARLDSTNPASFAVNARLLLNGDPVVLGEVLRPNQRRKFWLFEGHHHHHH", "soluble on expression in E. coli": "not soluble"}, {"sequence": "MSLRRILHMTEKKKKIGFNIVKNDSTDGHGGFGVGALSLENISPVFVDVLEKTAFVDIGAMHARSTVEKGIKFLTNKDEVPNGKPFWLVWVTIERTATGAYYAGVTACEMTVDREIRRGYKSLPEHVNKMDKSMKRHIMVDHMDESSKKVLGTFLKEHNEAIWNESGEELRRALLSEEGHHHHHH", "soluble on expression in E. coli": "soluble"}, {"sequence": "MSLRRILITGANGFVGQILCSMLRQAGHHVIALVGAESALSSHADESVRCDIRDASGLEQALCRAAPTHVVHLAAITHVPTSFNNPVLTWQTNVMGSVNLLQALQRSAPEAFVLFVSSSEVYGETFKQGTALGEDSACKPMNPYAASKLAAEAAFNEYFRQGRKGIVVRPFNHIGARQSPDFATASFARQIALIEAGKQAPQLKVGNLQAARDFLDVHDVCDAYVALLQLADEQERYPGCLNICRGEPTSLQTLLTQLMALSSSVIEVTIDPDRMRPSDIPSAFGNNSAMRCATGWKPKTKLDDTLEALLNYWRHEVISAEGHHHHHH", "soluble on expression in E. coli": "soluble"}, {"sequence": "MSLRSEQEMMDIFLDFALNDERIRLVTLEGSRTNRNIPPDNFQDYDISYFVTDVESFKENDQWLEIFGKRIMMQKPEDMELFPPELGNWFSYIILFEDGNKLDLTLIPIREAEDYFANNDGLVKVLLDKDSFINYKVTPNDRQYWIKRPTAREFDDCCNEFWMVSTYVVKGLARNEILFAIDHLNEIVRPNLLRMMAWHIASQKGYSFSMGKNYKFMKRYLSNKEWEELMSTYSVNGYQEMWKSLFTCYALFRKYSKAVSEGLAYKYPDYDEGITKYTEGIYCSVKEGHHHHHH", "soluble on expression in E. coli": "soluble"}, {"sequence": "MSLRSYDGQLVYNPVEENGVMVGQTVYKMNGSTLANYMKYNYKYDDNKRMIESETLKWNSTKEEWEKDLRINYTYEGKTVTTNYYKWNNKKRAYVLVPEMTVTMDNTNEGHHHHHH", "soluble on expression in E. coli": "soluble"}, {"sequence": "MSLRTLAVETSCDETALAIYDDQKGVLGNVILSQAVVHSPFGGVVPELSAREHTRNILPIFDRLLKESRINLEEIDFISFTLTPGLILSLVVGVAFAKALAYEYRKPLVPVHHLEGHIYSVFLEKKVEYPFLALIISGGHTDLYLVRDFGRYDFLGGTLDDAVGEAYDKVAKMLGLGYPGGPIIDRLAKEGKKLYPLPKPLMEEGNLNFSFSGLKTAILNLLKKEKNVRKEDIAYSFQETVVEILLEKSLWAMKKTGIKRLVVVGGVSANSRLREVFKKASQEYGFELYIPHPSLSTDNALMIAYAGMERFKRGVVAPLDVNPQPNIPLEEFGRIWTEGHHHHHH", "soluble on expression in E. coli": "soluble"}, {"sequence": "MSLRTTIADVAQAAGVSVSTVSRALRGLDRVSPETRERIEQEAKRLHFSFSKSASSLASGKTMRVAVLLPNEISSWFNAHAFEGIYEVMSKAGYDIVPYIVWTQDDLDAFFQNLPGNRNVDAVIEASFDFDEAKKQVLGNLTIPVVGMNAPSTHGLDAGVAIDDEASMATIVRFLKSLGHKTLAYIEQPINTTPFVCSDRLRKKGFSEASQACGYADEDIIVMPSLSHIDARSEQDIYSGIVAQLLSAPKQPTAICVSVDAVAAPLLKELRRMGWRVPQDVSLVGFDDDDTATALDLTTMHQDPAEIGRIAARKTLALLNGETLDEPFTVMPTSLVLRGTTERVSEGHHHHHH", "soluble on expression in E. coli": "soluble"}, {"sequence": "MSLRVTEPEMDQNLRDAIRMVINELTSSSGEVSQWTLREITARYRNLYRIKDPFVLDYYINRYMSGLRSVYPLYINDAIERIMSNGYDRPVIVQYNGKYYETNITLKREDLDSIAIRVSQMMGKKISSGSPIAYGNLQNFRSIVTFGDDVTPFGSSLYLERRHVVADPEAMSSMKDPMVSAYLIMALENMRSIMIIGPDSPMKIAIIYHLIRMIGSEKKIAYIGENGRFDFPRNIVYMMPRERTVFSSEISRTDLINTALRQRPDFIVVNGLTARELPAAVQAITTGHPTLSSMDIDSIENFSSLFSDPSTGLSKDMISLFDVVIEIADNGEYVKAIYEYDRLEGQEVLYNVPFSADRKRKLVFSGYSGIFRRMSKVIGEDSFRQALENRMKELDGGEGHHHHHH", "soluble on expression in E. coli": "soluble"}, {"sequence": "MSLSAPYRKQIISNAHNKPSLFSKIKTFFTQKDSARVSPRNNVANKQPRNESFNRRISSMPGGYFHSEISPDSTVNRSVVVSAVGEARNDIENKEEEYDETHETNISNAKLANFFSKKGNEPLSEIEIEGVMSLLQKSSKSMITSEGHHHHHH", "soluble on expression in E. coli": "soluble"}, {"sequence": "MSLSASRAIKERDSRSHIKVLFPSMPYVYVSRLINEGLVRLAENDQGWEYSLATDCPKLSPTLYECTLRQGVRFQDGTPFNADSVIKNFDYFLAQPFNYTDIHRSLKAVEKVSPYKIRLILSQPYGMLFRDLARIFFYSDAYLRQYGWGGAETGANIKSAGSYGLGPYILVEGMITGRKQTPKAILKANPYYWEKGFPKIETITVFTELETQSALESLLEREGELDFMPIPFNKKIETLLSPYTKLIITPSTNNFTIYFNLHKHDSKVFDPKVRQALNCALNQENLLNFTYKKEGRPNTGAYTHEDCPFSLRELHEILRGLKFKVATQDSLLFLWRGIEYQLSRYGVELEFLLTTSEKEIYDLAQKNHQQTQEWDMLIQGTQDWYGRHPWPIFIRYQEGNPWSFVTGDIKMREAINQLFRHEQGTPEFEALCQTIIQRAKEKAYMLFIPTPHAVYGMNKELHFTPHGIGLQPLWKAEVTSEHWSLRGDKPYPESLQKPILPQREGHHHHHH", "soluble on expression in E. coli": "not soluble"}, {"sequence": "MSLSDDDVDNVIEVARDSWKWTYKDIYSDEFIENWISEKYSKEKLLNEITKSQLNLDLVFLGSFHESKLIGFIELKISSSKAELLRLYLRPEYTHRGVGRILLSEAEELVKKRDVEECILYVHKKNYIATSFYKKNGFQVKDIYGDDLIMIKRYKVEGHHHHHH", "soluble on expression in E. coli": "not soluble"}, {"sequence": "MSLSEIKRKFDAVSGKYDEQRRKFIPCFDDFYGVSVSIASVDTENPDILDLGAGTGLLSAFLMEKYPEATFTLVDMSEKMLEIAKNRFRGNLKVKYIEADYSKYDFEEKYDMVVSALSIHHLEDEDKKELYKRSYSILKESGIFINADLVHGETAFIENLNKTIWRQYVENSGLTEEEIAAGYERSKLDKDIEMNQQLNWLKEAGFRDVSCIYKYYQFAVMFGRKTEGHHHHHH", "soluble on expression in E. coli": "soluble"}, {"sequence": "MSLSELIKRLITAMTLCLTALLVHAQEWTKEDSLRLRKLLDSDQELNLNQDAVRQIDFGSAVGTPRMSVEKKWMLPDESLPEALPKPKVVLSLMPYKANTPYNWDPVFQKKIRMDKNTWRGDPHYEMRHQRSYSNWAHNPMAGGVRKSLEEIRASGVRFRQLSERANGMMVNSVVMDSPIPLFGGSGVYINGGTIGGLDLMAVFTKNFWDKKGKERRERTLEVLRTYGDSTTVLINRPIEQIAREGHHHHHH", "soluble on expression in E. coli": "not soluble"}]}]}
